In WO2001072771A2:
No end group written: not given here.

Assays:
[1] = target: soluble human insulin receptor (IR-Fc) (human) (UniProt P06213); test: phage ELISA
[2] = target: soluble IGF-1 receptor (human) (UniProt P08069); test: phage ELISA

Binder	ratio over background [1]	ratio over background [2]
SGAKVIWTGDSGDPFYHKLSELLQGS [B6Hα-2-C10-IR]	1.1	5.8
PAGPCGFYCGLGLLLHGDQSP [20E2B-4-H8-IGFR]	0.9	5.3
QGNVLDFYGWIGRLLAKQGSD [20E2B-3-D12-IGFR]	0.9	6.2
RGMKEEVLVGGSTDPFYHKLSELLQGS [B6Hα-3-F11-IR]		18.7
AGSVTSFYDAMEQLVATGTSA [20E2A-3-A4-IGFR]		2.5
VATSQGFYSGLSELLQGGGNV [20E2B-3-E12-IGFR]	0.8	6
YRGMVLGRISGGAGKAASERPARIGQKVSAVNFYDWFV [A6L-0-H3-IR]		26
VGTVAGFYDAIAQLVARASRV [20E2A-3-C7-IGFR]	1.1	5.4
ICTGQGFYQVLCGLLRGTSAR [20E2B-2-B3-IGFR]	0.7	5.3
LSSDGQFYRANLLLQGSAGR [20E2B-2-B7-IGFR]	0.9	6.1
LSVALSFYDALGQLVAGEGRW [20E2A-3-A12-IGFR]		4.3
RGAVAGFHDQFYDWFDRQVSRVHKFG [H2CA-4-H9-IGFR]		5.6
ASSASGFYELLQRLAGLGLEV [20E2B-3-C4-IGFR]	3.3	20.4
RFSTDGFYQYLLALVGGGPVG [20E2B-1-A11-IGFR]	1	9.5
EGSGFYGYFFSLLGLQG [NNRPγ-4-A9-IR]	1.4	10
AQPCGGFYGLLEQLVGRSVCD [20E2B-4-F10-IGFR]	2.2	17.3
RGKTAAVIVGRPADPFYHKLSELLQGG [B6Hα-3-E8-IR]	1.1	5.3
PVGVQGFYEGLSRLVLGRGGW [20E2B-4-F8-IGFR]	0.8	7.3
YRGMLVLGRSSDGAGKVAFERPARIGQTVFAVNFYDWFV [A6L-0-E6-IR]		31
DSVGDNFYQLLESLVGGHGVG [20E2B-3-D6-IGFR]	2.6	17.8

Results, then the binder that gave them:

ratio over background [1]	ratio over background [2]	Binder
	17.7	GGTEVDFYRALERLVRGQLGL [20E2B-3-D8-IGFR]
	8.8	GCWEWQKWHGASDPFYHKLSELGGCS [B6Hα-3-F10-IR]
0.8	7.9	NSRDGGFYLQLERLLGFPVTG [20E2B-3-D4-IGFR]
1.3	7.7	FFYRCLSRLLGGQLGSRLGLSCIGD [20C-3-E4-IGFR]
	10.9	IIGGFYSYFNSVLRLGT [NNRPγ-4-A1-IR]
	25.2	LQPCSGFYECIERLIGVKLSG (not fully specified (bridges); cysteine pairing not given here) [20E2Bβ-4-G7-IR]
	24.2	RCEEKQAEVGPSSDPFYHKMSELLGCR [B6Hα-3-E9-IR]
0.8	9.7	VGYQGQGDENFYDWFIRQVSGRLGVQ [H2CA-4-F5-IGFR]
3	30.8	DRAFYNGLRDLVGAVYGAWD [R20 -4-20C11-IR]
	3.1	SRVAATKEKRPSDDPFYHKLSELLQGS [B6Hα-3-F7-IR]
	3.3	NVFVSFYDAIDQLVCQRIGC [20E2A-4-G11-IGFR]
0.8	9.7	YSCGDGFYSLLSDLLGGQFRC [20E2B-4-H12-IGFR]
1.3	6.3	RFDPFYSYFVNLLGASA [NNRPγ-4-A7-IR]
	3.2	GCITAENGAGDPFYHKLSELGGCS [B6Hα-1-B3-IR]
	14.7	QPDHSYFYSLLQELVGSEERL [20E2B-4-F9-IGFR]
	20.8	SSYGCDGFYLMLFSLGLVASQELEC [20C-3-A1-IGFR]
1.1	7.3	AVRATRFDEAFYDWFVRQISDGQGNK [H2CA-4-F6-IGFR]
	6.1	GGTKAVAKVGTRDDPFYHKLSELLQGS [B6Hα-4-G8-IR]
0.8	5.7	IWATGDFYRLLSQLVMGRVGT [20E2B-2-B8-IGFR]
	15.6	QPAPDGFYSALMKLIGRGGVS [20E2B-3-C8-IGFR]
0.9	5.2	RCQGTGFYTCIQELIGFGDPD [20E2B-4-H9-IGFR]
0.6	4.5	RQGTGSFYLMLEQLLVGARGP [20E2B-4-G11-IGFR]
